Assay [1] concerns the target T1, human complement C3b protein (human, UniProt P01024 23-667; P01024 749-1663).
T1 construct: Purified plasma C3b (Complement Technology, Quidel); Depending on the assay it was captured by an anti-C3d antibody, coated, biotinylated or coupled to beads; also called human C3b; huC3b
As to the kind of experiment: AlphaScreen bead proximity, C3b-Acceptor beads pre-incubated with antibody, then biotinylated fB(D24G/N260D) and SA-Donor beads; blocked ligand: fB [A]. Here is the method: (§1) In brief, purified C3b and fP were conjugated to unconjugated acceptor or donor beads (PerkinElmer) using AminoLink Reductant (Pierce) during a 48 h incubation at room temperature. Beads were quenched using Carboxymethoxylamine Hemihydrochloride (Aldrich), and purified by centrifugation at 13000 rpm and three washes with 0.1M TBST. Purified fB(D24G/N260D) and fH were biotinylated during a 30 min incubation with 20-fold molar excess of NHS-Chromogenic-biotin (Pierce) at room temperature, and purified using Zeba 0.5 ml desalting columns (Pierce).
(§2) For C3b-C3b and C3b-fP proximity, Fabs or IgGs respectively were pre-incubated with C3b-Acceptor beads (20 μg/ml) for 60 min at room temperature. C3b-Donor beads or fP-Donor beads (20 μg/ml) were then added, and the plate was incubated overnight at room temperature before reading. For C3b-fB and C3b-fH proximity, antibodies were pre-incubated with C3b-Acceptor beads (20 μg/ml) for 60 minutes at room temperature. Biotinylated fB(D24G/N260D) or fH were then added, and incubated for 60 minutes at room temperature. SA-Donor beads were then added (20 μg/ml) and the plate was incubated overnight at room temperature before reading. Plates were read on the BMG Pherastar (ex=680, em=520-620).

Assay [2] addresses T2, cynomolgus complement C3b protein (cynomolgus monkey (Macaca fascicularis)).
T2 construct: also called cyno C3b; cynoC3b
In words: SPR (Biacore T100), C3b captured by anti-C3d antibody, IgG as analyte, 1:1 model.

Assay [3] has as its target T1, human complement C3b protein. The description is as above.
The target is the same in assay [4]. In words: cell-based or functional assay.
Assay [5] has the same target. As to the kind of experiment: AlphaScreen bead proximity, C3b-Acceptor beads pre-incubated with antibody, then C3b-Donor beads; inhibition of C3b-C3b dimer formation; unit from the axis [Antibody] nM; value lies above the highest point shown (about 800 nM) [D]. Here is the method: as §1, §2
Assay [6] shares this target. In words: ELISA, C3b or C3 captured by anti-C3d antibody.
In assay [7] the target is T3, human C3d (human, UniProt P01024 1002-1303).
T3 construct: domain: C3d
T3 sequence (P01024 1002-1303 limits assumed): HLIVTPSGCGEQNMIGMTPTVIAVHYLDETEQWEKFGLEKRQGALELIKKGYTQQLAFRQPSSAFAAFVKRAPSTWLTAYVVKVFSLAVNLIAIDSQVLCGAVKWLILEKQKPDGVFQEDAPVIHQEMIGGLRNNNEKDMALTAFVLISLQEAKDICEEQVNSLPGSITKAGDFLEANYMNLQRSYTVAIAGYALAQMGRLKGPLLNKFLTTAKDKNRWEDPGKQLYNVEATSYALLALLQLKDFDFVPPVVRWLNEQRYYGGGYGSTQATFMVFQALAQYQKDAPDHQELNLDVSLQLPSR
In words: C3d binding ELISA, IgG titrated from about 0.006 to 100 nM.

Assay [8] deals with T1, human complement C3b protein. As to the kind of experiment: AlphaScreen bead proximity, C3b-Acceptor beads pre-incubated with antibody, then biotinylated fH and SA-Donor beads; blocked ligand: fH [C].
For assay [9], the target named is T2, cynomolgus complement C3b protein. As to the kind of experiment: SPR (Biacore), C3b captured by anti-C3d antibody, Fab as analyte.
The target of assay [10] is T1, human complement C3b protein. The description is as above.
Assay [11] addresses T2, cynomolgus complement C3b protein. In words: solution equilibrium titration (SET), ECL detection, Fab.
The target in assay [12] is T1, human complement C3b protein. The description is as above.
Assay [13] concerns the target T4, human C5 (human, UniProt P01031 19-673; P01031 678-1676).
T4 construct: Captured by an anti-C5 antibody in the ELISA
As to the kind of experiment: cross reactivity, capture ELISA with anti-C5 capture antibody, anti-His detection.

Assay [14] has as its target T1, human complement C3b protein. In words: bead proximity assay, C3b-acceptor beads; competitor fP-donor beads. Here is the method: as §2
Assay [15] has the same target. In words: bead proximity assay, C3b-acceptor beads; competitor biotinylated fH. Here is the method: as §2
The target in assay [16] is T2, cynomolgus complement C3b protein. As to the kind of experiment: cell-based or functional assay.
In assay [17] the target is T1, human complement C3b protein. As to the kind of experiment: cell-based or functional assay. This is another data set of the same source.
The target in assay [18] is T3, human C3d. In words: cross reactivity, ELISA on C3d, anti-His detection. Here is the method:
In order to determine whether the anti-C3b antibodies described herein can bind to complement pathway components iC3b and C3c, the following steps were performed: Directly add iC3b(complement Technologies A115), C3d (complement Technologies A117), or C3c (complement Technologies A116), at 2 μg/ml in Carbonate Buffer onto Coat Maxisorp plate Nunc (442404) at 100 μl per well. Seal plates and incubate at 4° C. overnight. Aspirate plates and wash 3 times with PBS/0.5% Tween 20. Block plates with Diluent (PBS, 4% BSA Fraction V (Fisher ICN16006980), 0.1% Tween 20 (Sigma P1379), 0.1% Triton X-100 (Sigma P234729)) and incubate for 2 h at room temperature or overnight at 4° C. Then wash plates once with PBS/0.5% Tween 20. Dilute Fabs at 100 nM and subsequent dilutions (or higher concentration if needed) in diluent and plate 100 μl per well. Incubate at room temperature for 1 h. Wash plates 3 times with PBS/0.5% Tween 20. Add 100 μl/well of anti-Histidine-HRP monoclonal detection antibody at 1:400 in diluent and incubate at room temperature for 1 h. Then wash 4 times with PBS/0.5% Tween 20. Add 100 μl of TMB substrate (Pierce 34028) and incubate at room temperature for up to 5 min. Add 50 μl of Stop solution (2N Sulfuric Acid) to each well and read plate at 450 nm and correct for plastic reading at 570 nm.

Assay [19] has as its target T1, human complement C3b protein. In words: bead proximity assay, C3b-acceptor beads; competitor biotinylated fB(D24G/N260D). Here is the method: as §2

These results are taken from patent US20100291106A1 (Novartis, published 2010).

T1 sequence (P01024 23-667 P314L, chain 1 of 2): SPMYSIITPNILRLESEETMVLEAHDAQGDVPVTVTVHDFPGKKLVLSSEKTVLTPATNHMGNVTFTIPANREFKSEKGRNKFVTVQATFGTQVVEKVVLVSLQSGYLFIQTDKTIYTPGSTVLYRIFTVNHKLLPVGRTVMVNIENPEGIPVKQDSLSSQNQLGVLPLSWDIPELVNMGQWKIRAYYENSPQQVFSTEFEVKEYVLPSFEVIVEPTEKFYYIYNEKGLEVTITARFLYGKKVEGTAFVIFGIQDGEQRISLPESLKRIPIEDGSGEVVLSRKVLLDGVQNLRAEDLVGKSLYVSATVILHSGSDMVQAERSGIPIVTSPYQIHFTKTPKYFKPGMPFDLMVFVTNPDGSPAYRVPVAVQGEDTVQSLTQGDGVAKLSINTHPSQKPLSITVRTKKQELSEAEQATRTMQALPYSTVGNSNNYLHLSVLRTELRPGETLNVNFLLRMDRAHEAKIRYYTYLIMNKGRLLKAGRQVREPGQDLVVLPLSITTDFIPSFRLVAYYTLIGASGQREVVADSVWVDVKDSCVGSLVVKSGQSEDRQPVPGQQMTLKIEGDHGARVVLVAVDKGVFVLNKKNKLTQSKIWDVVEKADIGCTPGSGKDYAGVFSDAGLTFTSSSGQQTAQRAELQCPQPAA
T1 sequence (P01024 749-1663, chain 2 of 2): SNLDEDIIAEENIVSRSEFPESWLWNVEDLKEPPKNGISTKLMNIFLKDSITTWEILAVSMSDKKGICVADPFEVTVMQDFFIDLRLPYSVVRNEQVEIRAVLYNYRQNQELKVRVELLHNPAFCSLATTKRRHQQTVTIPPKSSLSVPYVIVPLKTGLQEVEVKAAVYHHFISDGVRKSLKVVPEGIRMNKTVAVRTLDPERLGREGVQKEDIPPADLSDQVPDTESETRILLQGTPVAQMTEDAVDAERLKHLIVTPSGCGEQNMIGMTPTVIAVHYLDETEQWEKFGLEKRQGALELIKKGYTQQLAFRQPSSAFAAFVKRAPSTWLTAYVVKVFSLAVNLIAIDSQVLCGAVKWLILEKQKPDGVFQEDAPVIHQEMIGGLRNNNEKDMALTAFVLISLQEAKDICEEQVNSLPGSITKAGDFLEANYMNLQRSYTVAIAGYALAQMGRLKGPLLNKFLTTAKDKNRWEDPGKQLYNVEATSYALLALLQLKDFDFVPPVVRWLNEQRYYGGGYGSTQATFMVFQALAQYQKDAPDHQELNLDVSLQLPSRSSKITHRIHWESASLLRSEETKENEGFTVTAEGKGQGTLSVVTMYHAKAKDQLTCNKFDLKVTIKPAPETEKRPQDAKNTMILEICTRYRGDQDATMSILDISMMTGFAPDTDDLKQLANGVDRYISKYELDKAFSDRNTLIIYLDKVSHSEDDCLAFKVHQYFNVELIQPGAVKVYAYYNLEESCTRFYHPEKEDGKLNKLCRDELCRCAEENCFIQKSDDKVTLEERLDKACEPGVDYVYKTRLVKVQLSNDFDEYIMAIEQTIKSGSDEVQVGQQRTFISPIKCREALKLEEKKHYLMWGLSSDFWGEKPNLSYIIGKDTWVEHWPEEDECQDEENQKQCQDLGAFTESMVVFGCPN
T4 sequence (P01031 19-673 limits assumed, chain 1 of 2): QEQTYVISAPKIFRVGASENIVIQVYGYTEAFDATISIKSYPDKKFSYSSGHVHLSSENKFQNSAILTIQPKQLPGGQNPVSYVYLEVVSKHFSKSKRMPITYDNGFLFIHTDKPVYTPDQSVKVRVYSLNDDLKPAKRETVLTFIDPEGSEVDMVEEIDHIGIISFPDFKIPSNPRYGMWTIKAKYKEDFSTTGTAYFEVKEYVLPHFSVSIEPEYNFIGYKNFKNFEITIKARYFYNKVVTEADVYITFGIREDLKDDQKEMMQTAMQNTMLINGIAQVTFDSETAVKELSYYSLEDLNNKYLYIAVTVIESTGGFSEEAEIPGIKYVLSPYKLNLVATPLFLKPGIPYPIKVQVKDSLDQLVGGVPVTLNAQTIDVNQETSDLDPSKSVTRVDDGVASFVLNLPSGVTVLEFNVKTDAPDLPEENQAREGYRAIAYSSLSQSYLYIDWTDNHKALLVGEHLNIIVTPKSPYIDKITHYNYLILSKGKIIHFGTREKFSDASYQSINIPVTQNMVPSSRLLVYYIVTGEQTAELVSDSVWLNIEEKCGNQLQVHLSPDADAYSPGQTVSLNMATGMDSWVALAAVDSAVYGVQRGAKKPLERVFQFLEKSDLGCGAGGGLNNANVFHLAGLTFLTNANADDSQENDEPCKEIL
T4 sequence (P01031 678-1676 limits assumed, chain 2 of 2): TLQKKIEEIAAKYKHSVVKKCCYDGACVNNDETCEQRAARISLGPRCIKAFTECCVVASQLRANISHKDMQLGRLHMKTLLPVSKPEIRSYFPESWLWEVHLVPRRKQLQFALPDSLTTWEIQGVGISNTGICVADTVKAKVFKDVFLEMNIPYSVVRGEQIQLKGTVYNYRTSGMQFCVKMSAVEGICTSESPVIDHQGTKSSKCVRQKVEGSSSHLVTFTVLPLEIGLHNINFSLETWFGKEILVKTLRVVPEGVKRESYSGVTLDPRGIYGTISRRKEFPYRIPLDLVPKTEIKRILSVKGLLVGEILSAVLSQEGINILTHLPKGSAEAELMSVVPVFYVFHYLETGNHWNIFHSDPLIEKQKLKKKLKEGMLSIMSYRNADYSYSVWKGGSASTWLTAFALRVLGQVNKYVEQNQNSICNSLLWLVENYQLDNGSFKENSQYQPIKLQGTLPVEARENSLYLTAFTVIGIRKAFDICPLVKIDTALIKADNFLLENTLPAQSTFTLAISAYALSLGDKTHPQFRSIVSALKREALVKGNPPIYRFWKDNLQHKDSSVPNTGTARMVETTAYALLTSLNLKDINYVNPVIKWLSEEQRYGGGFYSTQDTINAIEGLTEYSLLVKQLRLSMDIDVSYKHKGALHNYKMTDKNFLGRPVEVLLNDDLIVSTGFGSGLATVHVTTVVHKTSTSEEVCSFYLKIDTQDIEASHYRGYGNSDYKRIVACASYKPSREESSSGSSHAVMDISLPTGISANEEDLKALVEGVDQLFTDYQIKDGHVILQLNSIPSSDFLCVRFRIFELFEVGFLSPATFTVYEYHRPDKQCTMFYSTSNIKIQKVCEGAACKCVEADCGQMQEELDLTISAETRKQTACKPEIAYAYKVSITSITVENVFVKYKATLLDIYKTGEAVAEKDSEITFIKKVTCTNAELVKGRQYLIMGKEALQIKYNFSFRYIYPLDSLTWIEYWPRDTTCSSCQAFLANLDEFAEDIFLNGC

B1: MOR09675 IgG (antibody, V domains shown)
VH: EVQLVQSGAEVKKPGASVKVSCKASGYTFTGYYINWVRQAPGQGLEWMGIISPNQGTTGYAQKFQGRVTMTRDTSISTAYMELSSLRSEDTAVYYCARGNYDHLDYWGQGTLVTVSS
VL: DIQMTQSPSSLSASVGDRVTITCRASQGISNYLNWYQQKPGKAPKLLIYDASTLQSGVPSRFSGSGSGTDFTLTISSLQPEDFATYYCQQDWHTLPVTFGQGTKVEIKR
notes: Germlined human IgG1 with leucines 234 and 235 changed to alanines, kappa; also called antibody 9675
For the molecule B1, the “IC50 (read off the curve)” value in assay [1] is approximately 0.05 nM. Also, in [2], the Kd amounted to 0.202 nM, the koff was determined as 0.00029 s⁻¹ and the kon came to 1.45e+06 M⁻¹ s⁻¹. In addition, in [3], the Kd is 0.00288 nM, the koff is 1.02e-06 s⁻¹ and the kon was found to be 353000 M⁻¹ s⁻¹. For the same molecule, in assay [4], the “MAC deposition on zymosan, IC50” value is not above 5 nM; the “hemolysis of rabbit red blood cells, 10% human or cynomolgus serum, IC50” value was not above 50 nM; the “inhibition of C3a and C5a generation during hemolysis, IC50” value was not above 50 nM. The molecule further gave an EC50 in assay [5] of 2360 nM. For the same molecule, the “fold binding selectivity for C3b over C3” value in assay [6] is more than 1000 fold. For the same molecule, in assay [7], the binding result is on record as “no binding (tested: 100 nM)”. The “IC50 (read off the curve)” value in assay [8] is approximately 0.02 nM.

B2: MOR09398 Fab (Fab, V domains shown)
VH: QVQLVESGGGLVQPGGSLRLSCAASGFTFSSYWMTWVRQAPGKGLEWVSSIKIKPDGYAASVKGRFTISRDNSKNTLYLQMNSLRAEDTAVYYCARLFYQYFARMDYWGQGTLVTVSS
VL: DIQMTQSPSSLSASVGDRVTITCRASQDISNYLNWYQQKPGKAPKLLIYAASNLQSGVPSRFSGSGSGTDFTLTISSLQPEDFATYYCQQWDSFSPTFGQGTKVEIKR
notes: also called Fab 9398
Consider B2, for which the Kd is 0.092 nM in assay [9], 0.003 nM in [10], 0.1 nM in [11] and 0.004 nM in assay [12]. The binding result in assay [13] and in assay [18] was “no binding” each time. For the same molecule, the IC50 in assay [14] was 300 nM; in assay [15], 0.1 nM; in [19], 0.1 nM. Further, the “C3b Dep (nM), cyno serum, IC50” value in [16] is 56 nM. Further, the “HA (nM), 10% cyno serum, IC50” value in assay [16] turned out to be 86 nM. Further, the “MAC Dep (nM), cyno serum, IC50” value in assay [16] came out at 5 nM. Moreover, the “C3b Dep (nM), human serum, IC50” value in [17] was 13 nM. For the same molecule, the “HA (nM), 10% human serum, IC50” value in [17] was determined as 45 nM. The “MAC Dep (nM), human serum, IC50” value in assay [17] amounted to 1 nM.

B3: MOR09397 Fab (Fab, V domains shown)
VH: QVQLVESGGGLVQPGGSLRLSCAASGFTFSSYWMTWVRQAPGKGLEWVSSIKIKPDGYAASVKGRFTISRDNSKNTLYLQMNSLRAEDTAVYYCARLFYQYFARMDYWGQGTLVTVSS
VL: DIQMTQSPSSLSASVGDRVTITCRASQDISNYLNWYQQKPGKAPKLLIYAASNLQSGVPSRFSGSGSGTDFTLTISSLQPEDFATYYCQQHDTFRPTFGQGTKVEIKR
notes: also called Fab 9397
B3: the Kd worked out at 0.089 nM in [9], 0.007 nM in assay [10], 0.12 nM in assay [11] and 0.002 nM in assay [12]. Besides, the binding result in assay [13] and in [18] was “no binding” each time. Besides, the half-inhibitory concentration (IC50) in [14] is 300 nM; in assay [15], 0.1 nM; in assay [19] it was 0.1 nM. In assay [16], the “C3b Dep (nM), cyno serum, IC50” value was 35 nM. Also, the “HA (nM), 10% cyno serum, IC50” value in assay [16] came out at 59 nM. Moreover, in assay [16], the “MAC Dep (nM), cyno serum, IC50” value came to 7 nM. Further, the “C3b Dep (nM), human serum, IC50” value in [17] stood at 13 nM. For the same molecule, in [17], the “HA (nM), 10% human serum, IC50” value came to 35 nM. Also, in [17], the “MAC Dep (nM), human serum, IC50” value amounted to 1 nM.
